Tests used:
[1] = biological target: T1, variant nuclease K35G combination (P14R, D32R, I61R, E311R, K35G); experiment: cell_activity; PAM 5'-TTTG-3'; settings: tags: pcDNA3.1 expression
T1 chain: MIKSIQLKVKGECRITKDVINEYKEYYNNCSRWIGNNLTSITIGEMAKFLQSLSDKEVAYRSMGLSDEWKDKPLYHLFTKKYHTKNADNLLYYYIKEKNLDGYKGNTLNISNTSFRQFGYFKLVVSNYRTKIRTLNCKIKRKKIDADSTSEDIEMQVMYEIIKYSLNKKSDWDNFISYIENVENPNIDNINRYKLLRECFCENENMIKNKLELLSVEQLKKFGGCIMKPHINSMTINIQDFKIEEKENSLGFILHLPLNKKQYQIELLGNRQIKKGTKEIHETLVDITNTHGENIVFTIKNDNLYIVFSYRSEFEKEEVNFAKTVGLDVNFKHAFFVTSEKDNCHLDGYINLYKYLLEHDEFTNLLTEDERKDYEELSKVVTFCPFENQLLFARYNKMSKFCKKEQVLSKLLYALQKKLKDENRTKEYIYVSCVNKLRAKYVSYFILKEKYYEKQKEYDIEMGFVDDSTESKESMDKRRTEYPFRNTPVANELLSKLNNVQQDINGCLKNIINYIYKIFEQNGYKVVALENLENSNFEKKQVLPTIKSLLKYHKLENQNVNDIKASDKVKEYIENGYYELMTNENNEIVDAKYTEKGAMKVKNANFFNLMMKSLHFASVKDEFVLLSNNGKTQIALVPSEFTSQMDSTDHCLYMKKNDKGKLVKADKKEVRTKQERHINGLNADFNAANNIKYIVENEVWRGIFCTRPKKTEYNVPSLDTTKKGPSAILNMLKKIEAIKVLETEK
Method in brief: (§1)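 HEK293T cells were lipofected with nuclease plasmid (pcDNA3.1 backbone) plus RNA guide plasmid, with guide omitted in negative controls. After ~72 h cells were lysed in QuickExtract and % indels were derived from NGS reads, averaged over two bioreplicates and two technical replicates.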

[2] = biological target: T2, variant nuclease E736G combination (P14R, D32R, I61R, E311R, E736G); experiment: cell_activity; PAM 5'-TTTG-3'; settings: tags: pcDNA3.1 expression
T2 chain: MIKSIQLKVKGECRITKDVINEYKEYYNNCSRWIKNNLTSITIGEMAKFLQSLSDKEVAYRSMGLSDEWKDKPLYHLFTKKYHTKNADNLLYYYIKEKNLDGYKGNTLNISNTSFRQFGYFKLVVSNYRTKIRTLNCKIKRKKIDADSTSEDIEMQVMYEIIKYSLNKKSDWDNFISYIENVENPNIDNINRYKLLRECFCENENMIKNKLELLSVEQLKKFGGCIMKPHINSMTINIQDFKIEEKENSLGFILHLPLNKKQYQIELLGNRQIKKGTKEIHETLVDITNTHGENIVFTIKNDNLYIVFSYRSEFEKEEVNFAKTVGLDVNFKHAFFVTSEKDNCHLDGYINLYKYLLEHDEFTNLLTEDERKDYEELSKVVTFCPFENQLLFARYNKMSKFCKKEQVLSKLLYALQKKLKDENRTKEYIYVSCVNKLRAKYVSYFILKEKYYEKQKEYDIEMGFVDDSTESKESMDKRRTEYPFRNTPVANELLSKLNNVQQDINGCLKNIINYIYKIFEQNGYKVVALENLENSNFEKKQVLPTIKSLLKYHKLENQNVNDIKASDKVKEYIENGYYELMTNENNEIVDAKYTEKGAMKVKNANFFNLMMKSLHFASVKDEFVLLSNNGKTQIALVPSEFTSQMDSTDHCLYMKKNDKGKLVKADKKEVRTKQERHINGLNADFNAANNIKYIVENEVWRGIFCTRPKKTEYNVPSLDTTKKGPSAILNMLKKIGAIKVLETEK
Method in brief: as §1

B1: AAVS1 crRNA ; AAVS1 target (ssRNA ; dsDNA)
RNA: CUUGUUGUAUAUGUCCUUUUAUAGGUAUUAAACAACUGAGAAUGGUGCGUCCUAGG
DNA 1: TGAGAATGGTGCGTCCTAGG
DNA 2: CCTAGGACGCACCATTCTCA
indel activity [1]: 5.66 fold of WT | indel activity [2]: 5.28 fold of WT

Source: patent publication US20240035010, “COMPOSITIONS COMPRISING A VARIANT POLYPEPTIDE AND USES THEREOF” (Arbor Biotechnologies, Inc., published 2024)
